The record followed here is publication doi:10.1101/2020.11.06.371997.

In data set [1] the target is T1, Trf2ΔN-FG3 (UmTrf2) (Ustilago maydis, UniProt A0A0D1E1Z3 415-1528). Nature of the data set: EMSA. For orientation: A gel shift assay detects complexes by their altered migration in electrophoresis.
The target of data set [2] is T1, Trf2ΔN-FG3 (UmTrf2). Nature of the data set: EMSA. The source holds these as a separate data set.

B1: TTAGGG4 duplex (dsDNA)
DNA 1: TTAGGGTTAGGGTTAGGGTTAGGG
DNA 2: CCCTAACCCTAACCCTAACCCTAA
Broadly, the Kd is the free concentration of one partner at which half of the binding sites on the other are occupied at equilibrium, for simple one-to-one binding. Read a high Kd as weaker binding. In the data set with Trf2ΔN-FG3 (UmTrf2) [1], B1 gave a Kd of 20 nM.

B2: TTAGGG2 duplex (dsDNA)
DNA 1: GGTTAGGGTTAG
DNA 2: CTAACCCTAACC
For B2, in the data set with Trf2ΔN-FG3 (UmTrf2) [2], the binding result is listed as “no binding”.
